Molecular target: ERBB2 (HER2) (Homo sapiens?) (UniProt P04626)
Experiment: filter
Conditions: for Kd: same buffer, 37 C

## ATGTTAGAGTTTGCCTGAGTGCCTCGCAAGGGCGTAACAA [AP001-24 (1194-34, #11 short)]
6 (n) = NapdU [n positions 2,4,5,10,11,12,16,20,24,35 = modified dU], affinity for ERBB2 relative to EGFR, curve in figure only
  selectivity ratio (ERBB2 over EGFR affinity): > 1000 fold

## GAGTGACCGTCTGCCTGATGTTAGAGTTTGCCTGAGTGCCTCGCAAGGGCGTAACAACAGCCACACCACCAGCC [clone #11 (1194-2, 9-ER-N-B12_C06)]
6 (n) = NapdU [n positions 19,21,22,27,28,29,33,37,41,52 = modified dU], Bmax 0.29
  Kd: 3.06 nM

## GAGTGACCGTCTGCCTGGTCTGAACACCGAGATTAGCCGAACGAACGGTATGGACGTCAGCCACACCACCAGCC [clone #33 (9-ER-N-F02_A09)]
6 (n) in core = NapdU [n positions 19,21,33,34,49,51,57 = modified dU], Bmax only 0.03
  Kd: 9.79 nM

## GAGTGACCGTCTGCCTGGTTAGACTGAACGCACTGAGGGCCGCAGCCTATCTGAAGGCAGCCACACCACCAGCC [clone #10 (9-ER-N-B09_B06)]
6 (n) in core = NapdU [n positions 19,20,25,34,48,50,52 = modified dU], Bmax 0.25
  Kd: 3.71 nM

— patent US20150005368
